The nature of this data set: soluble on expression in E. coli; label from the status in PepcDB or PDB records.
Regarding “NRNFSIQMKGTFTYAHNEVLKYDEAAGLRPALSQVGKSLNSIWGYVADGLYIDEADIANNPQSTIGNIAIAPGDVKYVDQPDASGNYDGKITSDDRVVLGYPTIPEIIYGFGPSITWKNWDFSFFFQGQARVSFMMSGFEPFGTQSKNNVLKWISDDHWSKDNQNPNARYPRLTQYNNNNNTASSSYWLRNASFLKLRNAEIGYRFKWARIYVNGSNLLTFSPFKLWDPEMGGGAGMKYPTQRTYNVGIQLTFK”, the “soluble on expression in E. coli” value is on record as “not soluble”.
For the sequence “MTLDYIYHSGFAIEAEGVTVIIDYYKDSSETEHNRGIVHDYLLQRPGKLYVLATHFHPDHFNREILTWKEARPDIRYIFSKDILKSHRAKPEDATYIKKGETYEDETIRIEAFGSTDVGSSFLIHLQDWNIFHAGDLNNWHWSEESTEAEIRKANGDFLAEVKYLKEKAPKIDLALFPVDRRMGKDYMKGAKQFIEQIKTTIFVPMHFSEDYEGGNALRDFAENAGCRFVSITHRGESFEITK”, the “soluble on expression in E. coli” value is “not soluble”.
With “MVSLRSGKRVSRPSPSTPLEKPAETSTNPMETPKRAVKGQKTVEEKEKLPISLRKSERLAKNSGENSSAEIAEEHKEIVAPSQENSVDDDAESTQLSVDVFADPSDFEDDDDEVVPETDYEDNNEEPKNDQNPVEIPDNSDSDDDEPMEISSKNPVTSIENPENSDSDDDEPMEATSKAPEMSVAEPKSIIEKLLEKKAEKSAKLAAKKLKKRSKKKEAKKISDGVFQVKMKKSKAKFNVVTLKAGVQNILEPQINFREELLKSRTAGTRLADTEKFLQRGKWVSKR”, the “soluble on expression in E. coli” value was “soluble”.
For the sequence “RTMGFYVAKGNPKNITGWEDFRRDDLTMVNRERGCGTRILLDEHLRLLNIDGNKINGYSRESLSHLAIASIISRNGADIGIGNEKTGLQVANIDFIPIQRERYDLVIRKDDIEKPPFKAIIDILQSETFKSELMGIGGYDLTQTG”, the “soluble on expression in E. coli” value was “not soluble”.
For “MTSMEEMLREAANEVLQSRIPPGYVLYPNYEQYWSHEHGMFYNPDTEQFYRPEDKTVYQLNAEGSEYVLVERRKPTYWASRSYRKRAIDLLGSAEFKKFDQNEVNICEIAFGMVDKVIKGEEMEKEKEYLRSIANNKVALMQHRINKVFKGNRRRKNPHRQYVANVDESSGHVEYTLQVDDYFDWEDAYEDNSDDEFSEKDEQAVLMHQEGFDQPPCMRVMDALRRLHIITISGGYLGSDRDCEIVVSNQLLPERCAEIVYSEEAQCYSIEKLEDACILQVNGNNVKTSSPVDLCQGDSILLSGERFDVHVHNGSNTCPGCEPGLQQGDDDIAPVTTVPAKNIRGEVARRKNLKQMMKSYGIRPDDVLSEPIRKRPATGPSEMNIHRSEAPGSSSDMYGSCAAKPMPEGQRKFDLPSTSAAVAAAAAPKPLDSGNVGFKLLKSMGWSEGQGLGKEKQGHVEPVATEVKNNRKGLGANEKEPPTKSYKDQVLEKTKQRFNEKR”, the “soluble on expression in E. coli” value is on record as “not soluble”.
The same measure for “GMVRYPLEPVLSIKKDRVDRAEKVVKEKRRLLELEQEKLRERESERDKVKNHYMQKIRQLREQLDDGTTSDAILKMKAYIKVVAIQLSEEEEKVNKQKENVLAASKELERAEVELTKRRKEEEKTRLHKEEWMKEALKEEARQEEKEQDEMGQLLHQLHKQKQRESGEN”: “soluble”; for “MGSDKIHHHHHHMKKAIVLCAGKGTRLRPLTFTTAKHLIPIANKPILFYSLENIARAGIEEVGIVVSPHNAEEFKSIVGTGENFGLRISYIIQEEPKGLAHAVWVSREFLGDEDFMMYLGDNLILEDLGKFVKDFENSDYAASILLSPVKDPTRFGVAVMEGDRVIKVVEKPKTPPSNLAIVGLYLFRNKIFEGIKNIKPSWRGELEITDAIEYLIEKGEKVRGYIVYGWWKDTGKPEDLLEANRKILMETTEELLGEMDDKSSIQGPVRIGKASKIVNSVIRGPAVIGENCFIKNSYVGPYSSIGNRVILEDCEVENSIVMDECSITGVEKRIDSSILGKGVSVKGSQKRPASLNLILGNMSRVEL”: “not soluble”; for “GPGSMHAAPYEEVALSDMLLEDGKLRYPCPCGDLFELSLSEFAKGSVVAECPTCSLTVRIICNEEERHAFLLRCNALNGVRDVVIA”: “not soluble”.
For the sequence “MSLELTISELKENFWGEYEYLDGGYMAARLAVLEHLEQIKRQSGIIIIREITEEYFAPVGNWHIRETVRNAMKNRLGKYDNLNLAISEVNKKLKAKINLFELRTINSLINQKSIYDFFKEGHHHHHH”, the “soluble on expression in E. coli” value is on record as “not soluble”.

Source of the values: the DeepSol protein solubility set.
